Paper PMC5065529, “Wnt Signalosome Assembly by DEP Domain Swapping of Dishevelled” (Molecular Cell, 2016)

B1: SNAP-FZD5 (Frizzled 5), wild type [human] / DEP_(414–507)-GFP, minimal DEP domain of DVL2 [human] (parent)
chain 1: GRGLSVHTDMASVTKAMAAPESGLEVRDRMWLKITIPNAFLGSDVVDWLYHHVEGFPERREARKYASGLLKAGLIRHTVNKITFSEQCYYVFGD
chain 2: ASKAPVCQEITVPMCRGIGYNLTHMPNQFNHDTQDEAGLEVHQFWPLVEIQCSPDLRFFLCSMYTPICLPDYHKPLPPCRSVCERAKAGCSPLMRQYGFAWPERMSCDRLPVLGRDAEVLCMDYNRSEATTAPPRPFPAKPTLPGPPGAPASGGECPAGGPFVCKCREPFVPILKESHPLYNKVRTGQVPNCAVPCYQPSFSADERTFATFWIGLWSVLCFISTSTTVATFLIDMERFRYPERPIIFLSACYLCVSLGFLVRLVVGHASVACSREHNHIHYETTGPALCTIVFLLVYFFGMASSIWWVILSLTWFLAAGMKWGNEAIAGYAQYFHLAAWLIPSVKSITALALSSVDGDPVAGICYVGNQNLNSLRGFVLGPLVLYLLVGTLFLLAGFVSLFRIRSVIKQGGTKTDKLEKLMIRIGIFTLLYTVPASIVVACYLYEQHYRESWEAALTCACPGHDTGQPRAKPEYWVLMLKYFMCLVVGITSGVWIWSGKTVESWRRFTSRCCCRPRRGHKSGGAMAAGDYPEASAALTGRTGPPGPAATYHKQVSLSHV

Variants of: B1
Experiment: FZD5-dependent PM recruitment of DEP-GFP (cell scoring)
Conditions: with DEP_(414–507)-GFP, 100 cells scored in each case

Variant | screen value (parent: 52, read off a plot) | screen value (parent: 88, read off a plot)
chain 2 ASKAPVCQEITVPMCRGIGYNLTHMPNQFNHDTQDEAGLEVHQFWPLVEIQCSPDLRFFLCSMYTPICLPDYHKPLPPCRSVCERAKAGCSPLMRQYGFAWPERMSCDRLPVLGRDAEVLCMDYNRSEATTAPPRPFPAKPTLPGPPGAPASGGECPAGGPFVCKCREPFVPILKESHPLYNKVRTGQVPNCAVPCYQPSFSADERTFATFWIGLWSVLCFISTSTTVATFLIDMERFRYPERPIIFLSACYLCVSLGFLVRLVVGHASVACSREHNHIHYETTGPALCTIVFLLVYFFGMASSIWWVILSLTWFLAAGMAWGNEAIAGYAQYFHLAAWLIPSVKSITALALSSVDGDPVAGICYVGNQNLNSLRGFVLGPLVLYLLVGTLFLLAGFVSLFRIRSVIKQGGTKTDKLEKLMIRIGIFTLLYTVPASIVVACYLYEQHYRESWEAALTCACPGHDTGQPRAKPEYWVLMLKYFMCLVVGITSGVWIWSGKTVESWRRFTSRCCCRPRRGHKSGGAMAAGDYPEASAALTGRTGPPGPAATYHKQVSLSHV [chain 2 K321A] | 45 % of cells | 92 % of cells
chain 2 ASKAPVCQEITVPMCRGIGYNLTHMPNQFNHDTQDEAGLEVHQFWPLVEIQCSPDLRFFLCSMYTPICLPDYHKPLPPCRSVCERAKAGCSPLMRQYGFAWPERMSCDRLPVLGRDAEVLCMDYNRSEATTAPPRPFPAKPTLPGPPGAPASGGECPAGGPFVCKCREPFVPILKESHPLYNKVRTGQVPNCAVPCYQPSFSADERTFATFWIGLWSVLCFISTSTTVATFLIDMERFRYPERPIIFLSACYLCVSLGFLVRLVVGHASVACSREHNHIHYETTGPALCTIVFLLVYFFGMASSIWWVILSLTWFLAAGMKWTNEAIAGYAQYFHLAAWLIPSVKSITALALSSVDGDPVAGICYVGNQNLNSLRGFVLGPLVLYLLVGTLFLLAGFVSLFRIRSVIKQGGTKTDKLEKLMIRIGIFTLLYTVPASIVVACYLYEQHYRESWEAALTCACPGHDTGQPRAKPEYWVLMLKYFMCLVVGITSGVWIWSGKTVESWRRFTSRCCCRPRRGHKSGGAMAAGDYPEASAALTGRTGPPGPAATYHKQVSLSHV [chain 2 G323T] | 56 % of cells | 92 % of cells
chain 2 ASKAPVCQEITVPMCRGIGYNLTHMPNQFNHDTQDEAGLEVHQFWPLVEIQCSPDLRFFLCSMYTPICLPDYHKPLPPCRSVCERAKAGCSPLMRQYGFAWPERMSCDRLPVLGRDAEVLCMDYNRSEATTAPPRPFPAKPTLPGPPGAPASGGECPAGGPFVCKCREPFVPILKESHPLYNKVRTGQVPNCAVPCYQPSFSADERTFATFWIGLWSVLCFISTSTTVATFLIDMERFRYPERPIIFLSACYLCVSLGFLVRLVVGHASVACSREHNHIHYETTGPALCTIVFLLVYFFGMASSIWWVILSLTWFLAAGMKWGNEAIAGYAQYFHLAAWLIPSVKSITALALSSVDGDPVAGICYVGNQNLNSLRGFVLGPLVLYLLVGTLFLLAGFVSLFRARSVIKQGGTKTDKLEKLMIRIGIFTLLYTVPASIVVACYLYEQHYRESWEAALTCACPGHDTGQPRAKPEYWVLMLKYFMCLVVGITSGVWIWSGKTVESWRRFTSRCCCRPRRGHKSGGAMAAGDYPEASAALTGRTGPPGPAATYHKQVSLSHV [chain 2 I403A] | 34 % of cells | 70 % of cells
chain 2 ASKAPVCQEITVPMCRGIGYNLTHMPNQFNHDTQDEAGLEVHQFWPLVEIQCSPDLRFFLCSMYTPICLPDYHKPLPPCRSVCERAKAGCSPLMRQYGFAWPERMSCDRLPVLGRDAEVLCMDYNRSEATTAPPRPFPAKPTLPGPPGAPASGGECPAGGPFVCKCREPFVPILKESHPLYNKVRTGQVPNCAVPCYQPSFSADERTFATFWIGLWSVLCFISTSTTVATFLIDMERFRYPERPIIFLSACYLCVSLGFLVRLVVGHASVACSREHNHIHYETTGPALCTIVFLLVYFFGMASSIWWVILSLTWFLAAGMKWGNEAIAGYAQYFHLAAWLIPSVKSITALALSSVDGDPVAGICYVGNQNLNSLRGFVLGPLVLYLLVGTLFLLAGFVSLFRIRSVIKQGGTKTDKLEKLMIRIGIFTLLYTVPASIVVACYLYEQHYRESWEAALTCACPGHDTGQPRAKPEYWVLMLKYFMCLVVGITSGVWIWSGATVESWRRFTSRCCCRPRRGHKSGGAMAAGDYPEASAALTGRTGPPGPAATYHKQVSLSHV [chain 2 K499A] | 5 % of cells | 62 % of cells
chain 2 ASKAPVCQEITVPMCRGIGYNLTHMPNQFNHDTQDEAGLEVHQFWPLVEIQCSPDLRFFLCSMYTPICLPDYHKPLPPCRSVCERAKAGCSPLMRQYGFAWPERMSCDRLPVLGRDAEVLCMDYNRSEATTAPPRPFPAKPTLPGPPGAPASGGECPAGGPFVCKCREPFVPILKESHPLYNKVRTGQVPNCAVPCYQPSFSADERTFATFWIGLWSVLCFISTSTTVATFLIDMERFRYPERPIIFLSACYLCVSLGFLVRLVVGHASVACSREHNHIHYETTGPALCTIVFLLVYFFGMASSIWWVILSLTWFLAAGMKWGNEAIAGYAQYFHLAAWLIPSVKSITALALSSVDGDPVAGICYVGNQNLNSLRGFVLGPLVLYLLVGTLFLLAGFVSLFRIRSVIKQGGTKTDKAEKLMIRIGIFTLLYTVPASIVVACYLYEQHYRESWEAALTCACPGHDTGQPRAKPEYWVLMLKYFMCLVVGITSGVWIWSGKTVESWRRFTSRCCCRPRRGHKSGGAMAAGDYPEASAALTGRTGPPGPAATYHKQVSLSHV [chain 2 L417A] | 5 % of cells | 37 % of cells
chain 2 ASKAPVCQEITVPMCRGIGYNLTHMPNQFNHDTQDEAGLEVHQFWPLVEIQCSPDLRFFLCSMYTPICLPDYHKPLPPCRSVCERAKAGCSPLMRQYGFAWPERMSCDRLPVLGRDAEVLCMDYNRSEATTAPPRPFPAKPTLPGPPGAPASGGECPAGGPFVCKCREPFVPILKESHPLYNKVRTGQVPNCAVPCYQPSFSADERTFATFWIGLWSVLCFISTSTTVATFLIDMERFRYPERPIIFLSACYLCVSLGFLVRLVVGHASVACSREHNHIHYETTGPALCTIVFLLVYFFGMASSIWWVILSLTWFLAAGMKWGNEAIAGYAQYFHLAAWLIPSVKSITALALSSVDGDPVAGICYVGNQNLNSLRGFVLGPLVLYLLVGTLFLLAGFVSLFRIRSVIKQGGTKTDKLEKLMIRIGIFTLLYTVPASIVVACYLYEQHYRESWEAALTCACPGHDTGQPRAKPEYWVLMLKYFMCLVVGITSGVWIWSGKTVASWRRFTSRCCCRPRRGHKSGGAMAAGDYPEASAALTGRTGPPGPAATYHKQVSLSHV [chain 2 E502A] | 50 % of cells | 92 % of cells
